Laboratory results taken from patent US20150309012A1 (BAXTER INTERNATIONAL, published 2015).

Columns and labels:
Assay in all cases: cell-based or functional assay
[1] = target: T1, oxMIF on the cell surface of U937 human monocytic cells (human, UniProt P14174 2-115, oxidised isoform (oxMIF); residues not stated)
[2] = target: T1, oxMIF on the cell surface of U937 human …; remark: listed apart in the source
[3] = target: T1, oxMIF on the cell surface of U937 human …; remark: listed apart in the source

T1 sequence (P14174 2-115): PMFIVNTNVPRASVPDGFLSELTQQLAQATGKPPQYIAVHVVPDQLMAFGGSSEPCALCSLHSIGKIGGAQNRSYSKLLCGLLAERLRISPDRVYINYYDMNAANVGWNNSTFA

- IC50 of inhibition of random migration (chemokinesis) of U937 cells, Transwell, antibody in lower chamber; 25 experiments (38 plates) [1]: 0.8 nM
- IC50 of inhibition of random migration (chemokinesis) of U937 cells, Transwell, antibody in lower chamber; duplicate plates (26 plates from 13 experiments) [1]: 0.8 nM
- IC 50 of migration inhibition of U937 cells, antibody in the inserts (upper chamber), plate 2 [2]: 1.1 nM
- IC50 (inhibition of cell migration, chemokinesis assay, MI against log RAM9) [3]: 0.8 nM
B1: anti-oxMIF antibody RAM9 (antibody, human IgG1, kappa, V domains shown)
VH: EVQLLESGGGLVQPGGSLRLSCAASGFTFSIYSMNWVRQAPGKGLEWVSSIGSSGGTTYYADSVKGRFTISRDNSKNTLYLQMNSLRAEDTAVYYCAGSQWLYGMDVWGQGTTVTVSS
VL: DIQMTQSPSSLSASVGDRVTITCRSSQRIMTYLNWYQQKPGKAPKLLIFVASHSQSGVPSRFRGSGSETDFTLTISGLQPEDSATYYCQQSFWTPLTFGGGTKVEIKR
